# Measurements: publication PMC2697320, “Identification of the high affinity binding site in the Streptococcus intermedius toxin intermedilysin for its membrane receptor, the human complement regulator CD59” (Molecular Immunology, 2009)
# B1: ILY peptide (peptide containing ILY residues 461-469 with flanking residues and an added C-terminal cysteine) (peptide)
# chain: AWEPWRLIYSKNDLPLVPC
# Target: T1, Recombinant soluble CD59 comprising amino acids 1-76 with an 11 amino acid Ser/Gly linker and termin (human, terminal Cys reduced with TCEP and thiol-coupled to the PDEA-modified CM5 chip)
# T1 construct: also called recombinant CD59; immobilised CD59
# Assay: SPR
# Conditions: both partners purified
binder,measurement,value
B1,Kd,4.92 µM
